Measurements as given in IntAct's records for PubMed 20881132.

Biological target: sgg_drome sgg (UniProt P18431)
Sequence of UniProt P18431 (P18431 whole entry): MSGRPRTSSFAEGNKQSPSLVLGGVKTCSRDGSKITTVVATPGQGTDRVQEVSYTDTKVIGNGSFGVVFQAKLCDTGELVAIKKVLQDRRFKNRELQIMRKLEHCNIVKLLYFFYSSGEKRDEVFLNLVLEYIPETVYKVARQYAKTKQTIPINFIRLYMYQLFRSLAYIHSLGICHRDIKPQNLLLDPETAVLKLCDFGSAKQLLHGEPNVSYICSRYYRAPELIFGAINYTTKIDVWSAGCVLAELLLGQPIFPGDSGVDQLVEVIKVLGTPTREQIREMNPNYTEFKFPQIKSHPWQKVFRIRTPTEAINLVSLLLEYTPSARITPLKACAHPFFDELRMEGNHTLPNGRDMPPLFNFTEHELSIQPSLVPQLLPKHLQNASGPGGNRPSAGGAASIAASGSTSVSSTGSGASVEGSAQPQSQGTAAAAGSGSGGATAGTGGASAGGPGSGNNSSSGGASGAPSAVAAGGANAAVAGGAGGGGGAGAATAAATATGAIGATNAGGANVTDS

effect of a mutation on the interaction: increasing interaction
Substance: Leucine-rich repeat serine/threonine-protein kinase 2 (Homo sapiens), Q5S007 G2019S
